Results on twelve molecules are retold here after article PMC6804253, “Predicting and Experimentally Validating Hot-Spot Residues at Protein–Protein Interfaces” (ACS Chemical Biology, 2019).

In assay [1] the test system is PPIs of the SKEMPI data set (by PDBID). As to the kind of experiment: SKEMPI experimental ΔΔG, single mutations to alanine. The class given is binding. The following applies: class of the SKEMPI experimental ΔΔG.
The test system is the same in assay [2]. The following applies: single mutation to alanine, sheet sortedByGroup, r_group FAMILYVW; ref SKEMPI; cited from earlier work.

B1: 1DAN FT50A (protein, UniProt P13726 33-251, looked up, variant F50A)
extracellular domain: SGTTNTVAAYNLTWKSTNFKTILEWEPKPVNQVYTVQISTKSGDWKSKCAYTTDTECDLTDEIVKDVKQTYLARVFSYPAGNVESTGSAGEPLYENSPEFTPYLETNLGQPTIQSFEQVGTKVNVTVEDERTLVRRNNTFLSLRDVFGKDLIYTLYYWKSSSSGKKTAKTNTNEFLIDVDKGENYCFSVQAVIPSRTVNRKSTDSPVECMGQEKGEFRE
modifications: extracellular domain
Turning to B1, the sk_class result in assay [1] is recorded as “Neutral (neutral (little effect) 4.184 kJ/mol < ΔΔG > −4.184 kJ/mol)”. For the same molecule, the “sk_ddG_kJ (SKEMPI experimental ΔΔG)” value in assay [2] was 1.84 kJ.

B2: 1DAN FT76A (protein, UniProt P13726 33-251, looked up, variant F76A)
extracellular domain: SGTTNTVAAYNLTWKSTNFKTILEWEPKPVNQVYTVQISTKSGDWKSKCFYTTDTECDLTDEIVKDVKQTYLARVASYPAGNVESTGSAGEPLYENSPEFTPYLETNLGQPTIQSFEQVGTKVNVTVEDERTLVRRNNTFLSLRDVFGKDLIYTLYYWKSSSSGKKTAKTNTNEFLIDVDKGENYCFSVQAVIPSRTVNRKSTDSPVECMGQEKGEFRE
modifications: extracellular domain
For the molecule B2, the sk_class result in assay [1] is “Positive (positive (a hot residue) ΔΔG ≥ 4.184 kJ/mol)”. Moreover, the “sk_ddG_kJ (SKEMPI experimental ΔΔG)” value in assay [2] is listed as 4.81 kJ.

B3: 1DAN VU146A (protein, UniProt P13726 33-251, looked up, variant V146A)
extracellular domain: SGTTNTVAAYNLTWKSTNFKTILEWEPKPVNQVYTVQISTKSGDWKSKCFYTTDTECDLTDEIVKDVKQTYLARVFSYPAGNVESTGSAGEPLYENSPEFTPYLETNLGQPTIQSFEQVGTKVNVTVEDERTLVRRNNTFLSLRDAFGKDLIYTLYYWKSSSSGKKTAKTNTNEFLIDVDKGENYCFSVQAVIPSRTVNRKSTDSPVECMGQEKGEFRE
modifications: extracellular domain
B3: in assay [1], the sk_class entry is on record as “Neutral (neutral (little effect) 4.184 kJ/mol < ΔΔG > −4.184 kJ/mol)”. The “sk_ddG_kJ (SKEMPI experimental ΔΔG)” value in assay [2] is 0.84 kJ.

B4: 1DAN LU133A (protein, UniProt P13726 33-251, looked up, variant L133A)
extracellular domain: SGTTNTVAAYNLTWKSTNFKTILEWEPKPVNQVYTVQISTKSGDWKSKCFYTTDTECDLTDEIVKDVKQTYLARVFSYPAGNVESTGSAGEPLYENSPEFTPYLETNLGQPTIQSFEQVGTKVNVTVEDERTAVRRNNTFLSLRDVFGKDLIYTLYYWKSSSSGKKTAKTNTNEFLIDVDKGENYCFSVQAVIPSRTVNRKSTDSPVECMGQEKGEFRE
modifications: extracellular domain
On to B4, for which, in assay [1], the sk_class entry was “Neutral (neutral (little effect) 4.184 kJ/mol < ΔΔG > −4.184 kJ/mol)”. The “sk_ddG_kJ (SKEMPI experimental ΔΔG)” value in assay [2] is reported as -0.08 kJ.

B5: 1DAN IU152A (protein, UniProt P13726 33-251, looked up, variant I152A)
extracellular domain: SGTTNTVAAYNLTWKSTNFKTILEWEPKPVNQVYTVQISTKSGDWKSKCFYTTDTECDLTDEIVKDVKQTYLARVFSYPAGNVESTGSAGEPLYENSPEFTPYLETNLGQPTIQSFEQVGTKVNVTVEDERTLVRRNNTFLSLRDVFGKDLAYTLYYWKSSSSGKKTAKTNTNEFLIDVDKGENYCFSVQAVIPSRTVNRKSTDSPVECMGQEKGEFRE
modifications: extracellular domain
Regarding B5, in assay [1], the sk_class result is “Neutral (neutral (little effect) 4.184 kJ/mol < ΔΔG > −4.184 kJ/mol)”. Further, in assay [2], the “sk_ddG_kJ (SKEMPI experimental ΔΔG)” value is given as 0.75 kJ.

B6: 1DAN VT64A (protein, UniProt P13726 33-251, looked up, variant V64A)
extracellular domain: SGTTNTVAAYNLTWKSTNFKTILEWEPKPVNQVYTVQISTKSGDWKSKCFYTTDTECDLTDEIAKDVKQTYLARVFSYPAGNVESTGSAGEPLYENSPEFTPYLETNLGQPTIQSFEQVGTKVNVTVEDERTLVRRNNTFLSLRDVFGKDLIYTLYYWKSSSSGKKTAKTNTNEFLIDVDKGENYCFSVQAVIPSRTVNRKSTDSPVECMGQEKGEFRE
modifications: extracellular domain
In the case of B6, the sk_class entry in assay [1] is “Neutral (neutral (little effect) 4.184 kJ/mol < ΔΔG > −4.184 kJ/mol)”. Further, the “sk_ddG_kJ (SKEMPI experimental ΔΔG)” value in assay [2] is given as 0.00 kJ.

B7: 1DAN YT78A (protein, UniProt P13726 33-251, looked up, variant Y78A)
extracellular domain: SGTTNTVAAYNLTWKSTNFKTILEWEPKPVNQVYTVQISTKSGDWKSKCFYTTDTECDLTDEIVKDVKQTYLARVFSAPAGNVESTGSAGEPLYENSPEFTPYLETNLGQPTIQSFEQVGTKVNVTVEDERTLVRRNNTFLSLRDVFGKDLIYTLYYWKSSSSGKKTAKTNTNEFLIDVDKGENYCFSVQAVIPSRTVNRKSTDSPVECMGQEKGEFRE
modifications: extracellular domain
In the case of B7, the sk_class result in assay [1] is “Neutral (neutral (little effect) 4.184 kJ/mol < ΔΔG > −4.184 kJ/mol)”. Moreover, the “sk_ddG_kJ (SKEMPI experimental ΔΔG)” value in assay [2] is recorded as 2.72 kJ.

B8: 1DAN YU94A (protein, UniProt P13726 33-251, looked up, variant Y94A)
extracellular domain: SGTTNTVAAYNLTWKSTNFKTILEWEPKPVNQVYTVQISTKSGDWKSKCFYTTDTECDLTDEIVKDVKQTYLARVFSYPAGNVESTGSAGEPLAENSPEFTPYLETNLGQPTIQSFEQVGTKVNVTVEDERTLVRRNNTFLSLRDVFGKDLIYTLYYWKSSSSGKKTAKTNTNEFLIDVDKGENYCFSVQAVIPSRTVNRKSTDSPVECMGQEKGEFRE
modifications: extracellular domain
For the molecule B8, the sk_class result in assay [1] is recorded as “Positive (positive (a hot residue) ΔΔG ≥ 4.184 kJ/mol)”. Further, in assay [2], the “sk_ddG_kJ (SKEMPI experimental ΔΔG)” value is on record as 4.31 kJ.

B9: 1DAN LT72A (protein, UniProt P13726 33-251, looked up, variant L72A)
extracellular domain: SGTTNTVAAYNLTWKSTNFKTILEWEPKPVNQVYTVQISTKSGDWKSKCFYTTDTECDLTDEIVKDVKQTYAARVFSYPAGNVESTGSAGEPLYENSPEFTPYLETNLGQPTIQSFEQVGTKVNVTVEDERTLVRRNNTFLSLRDVFGKDLIYTLYYWKSSSSGKKTAKTNTNEFLIDVDKGENYCFSVQAVIPSRTVNRKSTDSPVECMGQEKGEFRE
modifications: extracellular domain
In the case of B9, in assay [1], the sk_class entry is recorded as “Neutral (neutral (little effect) 4.184 kJ/mol < ΔΔG > −4.184 kJ/mol)”. Further, the “sk_ddG_kJ (SKEMPI experimental ΔΔG)” value in assay [2] was -0.25 kJ.

B10: 1DAN FU140A (protein, UniProt P13726 33-251, looked up, variant F140A)
extracellular domain: SGTTNTVAAYNLTWKSTNFKTILEWEPKPVNQVYTVQISTKSGDWKSKCFYTTDTECDLTDEIVKDVKQTYLARVFSYPAGNVESTGSAGEPLYENSPEFTPYLETNLGQPTIQSFEQVGTKVNVTVEDERTLVRRNNTALSLRDVFGKDLIYTLYYWKSSSSGKKTAKTNTNEFLIDVDKGENYCFSVQAVIPSRTVNRKSTDSPVECMGQEKGEFRE
modifications: extracellular domain
For the molecule B10, the sk_class entry in assay [1] is “Positive (positive (a hot residue) ΔΔG ≥ 4.184 kJ/mol)”. Besides, in assay [2], the “sk_ddG_kJ (SKEMPI experimental ΔΔG)” value was 5.40 kJ.

B11: 1DAN YT51A (protein, UniProt P13726 33-251, looked up, variant Y51A)
extracellular domain: SGTTNTVAAYNLTWKSTNFKTILEWEPKPVNQVYTVQISTKSGDWKSKCFATTDTECDLTDEIVKDVKQTYLARVFSYPAGNVESTGSAGEPLYENSPEFTPYLETNLGQPTIQSFEQVGTKVNVTVEDERTLVRRNNTFLSLRDVFGKDLIYTLYYWKSSSSGKKTAKTNTNEFLIDVDKGENYCFSVQAVIPSRTVNRKSTDSPVECMGQEKGEFRE
modifications: extracellular domain
As to B11, the sk_class entry in assay [1] is recorded as “Neutral (neutral (little effect) 4.184 kJ/mol < ΔΔG > −4.184 kJ/mol)”. The “sk_ddG_kJ (SKEMPI experimental ΔΔG)” value in assay [2] was -0.54 kJ.

B12: 1DAN LT59A (protein, UniProt P13726 33-295, looked up, variant L59A)
Tissue factor: SGTTNTVAAYNLTWKSTNFKTILEWEPKPVNQVYTVQISTKSGDWKSKCFYTTDTECDATDEIVKDVKQTYLARVFSYPAGNVESTGSAGEPLYENSPEFTPYLETNLGQPTIQSFEQVGTKVNVTVEDERTLVRRNNTFLSLRDVFGKDLIYTLYYWKSSSSGKKTAKTNTNEFLIDVDKGENYCFSVQAVIPSRTVNRKSTDSPVECMGQEKGEFREIFYIIGAVVFVVIILVIILAISLHKCRKAGVGQSWKENSPLNVS
B12: in assay [1], the sk_class result is given as “Neutral (neutral (little effect) 4.184 kJ/mol < ΔΔG > −4.184 kJ/mol)”. In addition, the “sk_ddG_kJ (SKEMPI experimental ΔΔG)” value in assay [2] is reported as 0.00 kJ.
